{
  "source": "paper PMC4041481",
  "origin": "cited, not measured here",
  "target": "His37 (UniProt position 37, IIGILHLILWI)",
  "conditions": "M2 tetramer assembled in a lipid bilayer",
  "data": [
    {"substance": "Matrix protein 2 (M2 proton channel) (Influenza A virus (strain not stated))", "values": [
      {"measurement": "pKa", "result": "<5.0"}
    ]}
  ]
}
